Laboratory results reported in paper PMC7927433 (The Journal of Experimental Medicine, 2020).

Target: T1, recombinant XPF-HA (human, UniProt Q92889 1-916)
T1 sequence: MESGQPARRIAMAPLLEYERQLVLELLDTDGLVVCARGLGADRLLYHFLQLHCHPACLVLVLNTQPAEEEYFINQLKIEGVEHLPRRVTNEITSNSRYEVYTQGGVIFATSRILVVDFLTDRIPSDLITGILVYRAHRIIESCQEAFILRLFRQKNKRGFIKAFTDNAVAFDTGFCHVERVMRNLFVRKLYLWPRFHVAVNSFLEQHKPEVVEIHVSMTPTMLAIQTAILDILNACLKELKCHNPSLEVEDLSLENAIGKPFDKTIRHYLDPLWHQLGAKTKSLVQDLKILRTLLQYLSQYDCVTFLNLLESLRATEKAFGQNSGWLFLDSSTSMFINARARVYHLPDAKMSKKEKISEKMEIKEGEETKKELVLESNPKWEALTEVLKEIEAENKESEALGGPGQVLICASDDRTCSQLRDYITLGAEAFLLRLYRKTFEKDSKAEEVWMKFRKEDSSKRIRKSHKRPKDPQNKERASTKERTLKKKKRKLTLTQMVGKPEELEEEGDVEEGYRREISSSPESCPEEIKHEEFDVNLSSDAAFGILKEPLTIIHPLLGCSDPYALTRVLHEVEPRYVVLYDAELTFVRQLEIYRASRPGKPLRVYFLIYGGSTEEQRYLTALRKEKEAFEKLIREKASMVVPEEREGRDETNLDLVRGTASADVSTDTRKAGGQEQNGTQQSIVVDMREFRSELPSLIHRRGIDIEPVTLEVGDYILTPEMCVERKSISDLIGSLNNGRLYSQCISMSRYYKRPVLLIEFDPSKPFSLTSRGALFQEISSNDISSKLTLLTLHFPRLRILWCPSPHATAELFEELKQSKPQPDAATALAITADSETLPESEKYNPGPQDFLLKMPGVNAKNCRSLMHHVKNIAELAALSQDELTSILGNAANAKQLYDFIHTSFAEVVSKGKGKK
Experiment: SEC

B1: recombinant ERCC1^R156W-His (natural protein)
chain: MDPGKDKEGVPQPSGPPARKKFVIPLDEDEVPPGVAKPLFRSTQSLPTVDTSAQAAPQTYAEYAISQPLEGAGATCPTGSEPLAGETPNQALKPGAKSNSIIVSPRQRGNPVLKFVRNVPWEFGDVIPDYVLGQSTCALFLSLRYHNLHPDYIHGWLQSLGKNFALRVLLVQVDVKDPQQALKELAKMCILADCTLILAWSPEEAGRYLETYKAYEQKPADLLMEKLEQDFVSRVTECLTTVKSVNKTDSQTLLTTFGSLEQLIAASREDLALCPGLGPQKARRLFDVLHEPFLKVP
binding result: binds
